For three sequences, binding results are on record in article PMC2858704.

This data set deals with T1, PefR (Gbs1402) (Streptococcus agalactiae NEM316) (UniProt Q8E4J9).
T1 sequence: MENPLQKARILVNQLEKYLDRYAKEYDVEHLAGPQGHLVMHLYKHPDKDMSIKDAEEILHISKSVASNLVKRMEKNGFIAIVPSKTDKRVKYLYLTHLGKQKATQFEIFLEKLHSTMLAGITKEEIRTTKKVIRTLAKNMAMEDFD
The data set is described as follows: EMSA. The note with it: EMSA: 5% glycerol, 20 mM Tris-HCl pH 8, 50 mM KCl, 0.2 mM MgCl2, 1 mM EDTA, 0.2 mM DTT, 0.3 uM BSA, 15 ul, 37 C 20 min; 8% PAGE in 1x TBE, ethidium bromide ….

Regarding “CTTGTTGAGCCGTTGACAACGAAATGTTAAAGCTATTCATCAAAGTTGGGATAGCCGTTCCCAAACTTGTCTGATTTAACACCCCTGCAAATGTAGCAATCAACAATAAGGTGATC (double strand) [control pefA internal fragment (116 bp)]”, the binding result is “no binding”. Regarding “GCGTAGAAGTCATTAAATGGAGAACGCTTTATTAGGAAAAATAGTGGGGAGATATTTTAGAAAAAGGAAATAATGATGTTTTGAAAAAAATAGTTTCTATGAGAATCTTTTTCTTGACAATAAAATTTAGCTATTATAAAATAGTTCTCACGATAACTAAAATAATGATTTTTTCAGAAAATAATATTATTTATTGATTAAAAAATCAAAAAATAACCTTATAAGACCTATTTGTTATTCTTAAAAGATATTAGTTAAAATCAGAAATAGAGATTGGAGATA (double strand) [pefAB promoter fragment (281 bp)]”, the binding entry is “binds”.

With “ATTTGTATTTTACTATCATTTACATTAAAAATCAATATAAATTTATAATTAAAAATATAAAAAGCGAACATATATTTTTAATATTAAAAAGTAAGCGAAATCATTTTTTATTTGACGAATGATAGGTTTTTTTTAGAAATATTAATGTAAAAATAGTTCTCACGGTAACTTTTAATTGACAATTAATAAAGGTTGTTTTAAAATAGTTCTCACGATAACTATTAAAGGAGTATTATTATGGAGAATC (double strand) [pefRCD promoter fragment (248 bp)]”, the binding entry is recorded as “binds”.
